From publication PMC7536154, “Biochemical characterization of ferric uptake regulator (Fur) from Aliivibrio salmonicida. Mapping the DNA sequence specificity through binding studies and structural modelling”

Columns and labels:
[1] = molecular target: Ferric uptake regulator (Fur) from Aliivibrio salmonicida (Aliivibrio salmonicida); assay: SEC; Superdex 200 16/60; 300 mM NaCl, 50 mM Tris-HCl, 5 mM beta-mercaptoethanol, pH 7.5; second purification step after IMAC
[2] = molecular target: T1, AsFur (ferric uptake regulator) (Aliivibrio salmonicida, UniProt Q7AUU7 1-147); assay: EMSA; Mn2+ (100 uM MnCl2); EMSA: 20 mM Tris acetate pH 8.0, 1 mM MgCl2, 50 mM KCl, 1 mM DTT, 100 uM MnCl2, RT, 5 uM DNA, 0-80 uM AsFur, gel at 6 C; protection assay: 100 mM BisTrisPropane pH 7.5, 100 mM KCl, 5 mM MgSO4, 20 uM AsFur, 10 nM plasmid, RT then HinfI 37 C; conditions: protein: recombinant; tags: none stated (pDEST14; histidine-rich protein purified by IMAC); chain copies: 2; blunt
T1 sequence: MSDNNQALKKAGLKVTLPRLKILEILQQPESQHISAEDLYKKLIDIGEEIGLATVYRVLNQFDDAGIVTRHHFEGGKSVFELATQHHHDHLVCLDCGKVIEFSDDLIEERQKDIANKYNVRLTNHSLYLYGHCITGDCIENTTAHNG

Row | Molecule | stoichiometry N [1] | binding result [2]
1 | Ferric uptake regulator (Fur) from Aliivibrio salmonicida (natural protein) | 2 | –
2 | Vibrio anti-consensus (least conserved) (dsDNA) DNA 1: CCGTGCGCACTCCGCAGGG DNA 2: CCCTGCGGAGTGCGCACGG | – | no binding
3 | Vibrio consensus Fur box (dsDNA) DNA 1: AATGATAATAATTATCATT DNA 2: AATGATAATTATTATCATT | – | binds
